Patent US20060058231A1 (Xencor, published 2006)

Key:
Assay in all cases: fluorescence anisotropy, labeled BMP-7 added to serial dilutions of receptor/Fc fusion (x axis [receptor] uM)
[1] = target: T1, ActRIIa receptor/Fc fusion (R&D Systems) (UniProt P27037 20-134, limits assumed)
T1 construct: not shown: Fc portion of the fusion
Experimental: (§1) The binding of selected variants to BMP receptors, antibodies, and inhibitors was characterized using a fluorescence binding assay and the AlphaScreen™ assay. […] Small-scale (25 uL) reactions were performed using 15 uM BMP-7 and dye concentrations ranging from 0.3 uM to 1000 uM. […] The reaction was quenched with Tris pH 8.0 and cleaned up using a PD-10 desalt column; the second fraction was used in the experiments described below. BMP-7 was also labeled with C6-FXS, a FITC-derived fluorophore with a 6-carbon spacer between the fluor and the NHS group. Labeling conditions with various ratios of protein to dye were tested, in 20 mM PO4, 500 mM NaCl, pH 7 solution. After establishing labeling conditions, 500 ug Y65N/S120D was labeled. Excess dye was removed by centrifugation and a PD-10 desalt column.
(§2) The flourescently labeled BMP-7 was added to serial dilutions of receptor/Fc fusions of the BMP-7 receptors ActRIa, BMPRIa, BMPRIb, ActRIIa, ActRIIb, and BMPRII (R&D Systems). Experiments were also performed in which the fluorescently labeled BMP-7 was added to serial dilutions of noggin/Fc or gremlin (R&D Systems). The labeled BMP-7 and receptor or inhibitor was allowed to incubate, and the fluorescence polarization and intensity was measured using a TopCount plate reader.

[2] = target: T2, BMPRIa receptor/Fc fusion (R&D Systems) (UniProt P36894 24-152)
T2 construct: also called ALK-3; not shown: Fc portion of the fusion
T2 sequence (P36894 24-152 limits assumed): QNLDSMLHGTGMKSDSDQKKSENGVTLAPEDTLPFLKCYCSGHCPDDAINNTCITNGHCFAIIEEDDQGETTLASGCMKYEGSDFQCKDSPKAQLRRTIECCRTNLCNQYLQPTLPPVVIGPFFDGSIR
Experimental: as §1, §2

[3] = target: T3, ActRIIb receptor/Fc fusion (R&D Systems) (UniProt Q13705 19-134, limits assumed)
T3 construct: not shown: Fc portion of the bought fusion
T3 sequence (Q13705 19-134 limits assumed): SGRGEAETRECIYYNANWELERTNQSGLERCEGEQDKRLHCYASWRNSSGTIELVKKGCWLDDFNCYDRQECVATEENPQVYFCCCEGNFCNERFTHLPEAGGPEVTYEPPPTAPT
Experimental: as §1, §2

T1 sequence (P27037 20-134 limits assumed): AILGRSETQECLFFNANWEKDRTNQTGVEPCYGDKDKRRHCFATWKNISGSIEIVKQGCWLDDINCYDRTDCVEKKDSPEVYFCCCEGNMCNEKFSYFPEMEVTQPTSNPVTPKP

B1: FXS labeled BMP7 (ligand)
BMP-7 mature domain: STGGKQRSQNRSKTPKNQEALRMASVAENSSSDQRQACKKHELYVSFRDLGWQDWIIAPEGYAANYCEGECAFPLNSYMNATNHAIVQTLVHFINPETVPKPCCAPTQLNAISVLYFDDDSNVILKKYRNMVVRACGCH
modifications: labeled with C6-FXS (FITC-derived NHS fluorophore); labeled sites not given
notes: the C6-FXS form of the labeled BMP-7 that the list holds jointly as 1.m9; also called BMP-7 variant Y65N/S120D labeled with C6-FXS
EC50 (read off the curve) [1]: ~3000 nM
EC50 (read off the curve) [2]: ~1000 nM
EC50 (read off the curve) [3]: ~2000 nM
